{"source": "paper PMC7111312", "about": "(Virology, 2019)", "proteins": {"B1": {"name": "Wild type CavV 3CLpro (Cavally virus 3C-like protease) (enzyme, Cavally virus (CavV), UniProt F8RL29 1387-1700, looked up)", "chain": "SAASNPSISHIVLEMPVAINPLIKYTTRTSVSSLRGAVVNGYIYIQRHLFGSKKQEFEACYNNGKGLLNCKNLERSKYDIDSAELIGTLIRIPLHDKHSIPHISIHPDPLSYNGPVTLYLSRYDTELNKDVLCVHTGFMSEGHHDIKTVFGDCGGMLFDPKGRLLGLHCAGSDDVVFMDTTTGKSNIWTSYKLQHPSEIMITLNNEINLPNPANYDFETTKVVYQHPLRNVCATLETLQHLTNKTNAKLPYDSRLLSDFNITAEQYNQYGYYIDYNNFVNNFNRYTTTTIGTKSFETCIKYGLMDNKKPDYYNQ"}}, "molecular_target": "the molecule itself", "assay": "crystal structure", "data": [{"protein": "B1", "values": [{"measurement": "stoichiometry N", "value": 2}]}]}
